Target: T1, GST-CTD (C-terminal domain of HIV-1 integrase, aa 201-288) (HIV-1 (Hx3B), UniProt P04585 1348-1435)
T1 construct: Integrase (IN) of HIV-1, C-terminal domain aa 201-288; template HIV-1 Hx3B DNA (P04585 is isolate HXB2); also called IN-CTD; GST-IN-CTD(aa 201-288); source: pGEX3xPL construct; on glutathione sepharose 4B beads (pull-down) or as GST-tagged protein (AlphaScreen)
Experiment: AlphaScreen or HTRF; competition: GST-CTD (0.03 uM) with Bio-TAR RNA (0.1 uM), increasing INI1(183-304) as third component; low salt; four-parameter dose-response fit
Conditions: both partners purified

B1: His6-SUMO-INI1_(183-304) (domain or fragment, UniProt Q12824 183-304, looked up)
chain: PEVLVPIRLDMEIDGQKLRDAFTWNMNEKLMTPEMFSEILCDDLDLNPLTFVPAIASAIRQQIESYPTDSILEDQSDQRVIIKLNIHVGNISLVDQFEWDMSEKENSPEKFALKLCSELGLG
notes: INI1/SMARCB1, residues 183-304 (Rpt1, linker and part of Rpt2); Vector pET28a-h6-smt3; also called 6His-SUMO-INI1_(183-304); source: E. coli; clarified bacterial cell lysate for the pull-down
IC50: ~5 nM

From paper PMC8115288, “INI1/SMARCB1 Rpt1 domain mimics TAR RNA in binding to integrase to facilitate HIV-1 replication” (Nature Communications, 2021)
